# From patent US11634743B2, “Coupled, self-sufficient biotransformation of chenodeoxcholic acid to ursodeoxycholic acid and novel enzyme mutants applicable in said process” (Pharmazell GmbH, priority 2016, dated 2023)
# Experiments:
# [1] = Photometric activity assay of E. coli 7α-HSDH wildtype and mutants (crude extracts); format: biochemical; conditions: crude extract, substrate CDCA
# Experimental: The reaction mixture contained in a total volume of 1 ml:
# 880 μl 50 mM potassium phosphate (KPi) buffer, pH 8.0
# 100 μl 100 mM CDCA (dissolved in 50 mM KPi, pH 8)
# 10 μl Enzyme solution (in buffer as above, in the range of 2 to 6 U/ml)
# 10 μl 50 mM NAD^+ or NADP^+ (dissolved in ddH2O)
# An increase of extinction was determined at 340 nm over a period of 30 seconds and the activity was expressed as enzyme unit (1 U corresponds to a conversion of 1 μmol NAD(P)H/min). The molar extinction coefficient was 6.22 mM^−1×cm^−1.
# The photometric activity assay of the crude extract was performed by means of a UV-1700 spectrophotometer (Shimadzu, Japan) (see method described above under item 1.7). In Table 8, the specific activity values of individual mutants as obtained for NAD^+ and NADP^+ are summarized.
# [2] = Coupled one-step conversion of CDCA to UDCA with isolated enzymes, NAD(H) as cofactor; format: biochemical; conditions: 25 mM CDCA, 100 mM KPi pH 7.0, 25° C., 0.25 mM NAD^+
# [3] = Coupled one-step conversion of CDCA to UDCA with isolated enzymes, NADP(H) as cofactor; format: biochemical; conditions: 10 mM CDCA, 100 mM KPi pH 6.0, 25° C., 0.5 mM NADP^+
# Experimental: The enzymatic synthesis of UDCA with isolated enzymes was performed standardized in 100 mM KPi buffer (pH 7.0) at 25° C. The reaction mixtures were magnetically stirred at 500 to 700 rpm. The cofactor concentration was 0.25 mM NAD^+. For the biotransformation with NAD^+ as cofactor, the reaction was performed with […] enzyme, and for the biotransformation with NADP^+ as cofactor the reaction was performed with 0.5 U/ml 7α-HSDH and 1.0 U/ml 7β-HSDH. After pre-determined time intervals, samples were taken and analyzed by means of HPLC.
# In a second experiment, the biotransformation was performed in a one-step process with NADP(H) as cofactor. The enzymatic conversion of 10 mM CDCA was performed in 100 mM KPi buffer pH 6.0 at 25° C. with the 7β-HSDH [G39S/R64E] (SEQ ID NO:45) and the Cd7α-HSDH from C. difficile (SEQ ID NO:35) in a one-step process. The cofactor concentration was 0.5 mM NADP^+. For the 7-KLCA reduction, a […] 7β-HSDH from C. aerofaciens was applied and for the CDCA oxidation step the 7α-HSDH from C. difficile was applied. As illustrated a one-step conversion of CDCA in a directly coupled oxidation and reduction reaction with a NADP^+-dependent 7β-HSDH is operable.
# [4] = Small-scale biotransformation of CDCA to 7-KLCA with Cd7α-HSDH and NAD(P)H oxidase, HPLC; format: biochemical; conditions: 10 mM CDCA, NADP^+ regenerated by NAD(P)H oxidase, after 18.5 h
# Experimental: FIG. 5: Biotransfomation of CDCA (10 mM) in aqueous system (KPi, pH 7.0), containing 5 U Cd7α-HSDH and 50 U NOX during 18.5 hours. After 3.5 h and 7 h additional 50 U NOX were added to the reaction. Concentration of CDCA (-∘-CDCA) and 7-KLCA (-⋅-7-KLCA) were determined by HPLC.
# HPLC analysis was performed on a Purospher® STAR RP-18 column (Merck, Germany) on a HPLC LC-2010AHT-System (Shimadzu, Japan) at a flow rate of 1 ml/min. The mobile phase consisted of two eluents. Eluent A was distilled water (pH 2.6 adjusted with orthophosphoric acid 85%) and eluent B HPLC-grade acetonitrile. The starting condition for the gradient program was 65% eluent A and 35% eluent B. The system was monitored by UV detector at 200 nm. Totally, 20 μl samples with a bile acid concentration in the range of 1 mg/ml were analyzed. Authentic samples of CDCA, 7-KLCA and UDCA at the same concentration were used as references.
# For the biotransformation in a small-scale 10 mM CDCA in KPi-buffer (100 mM, pH 7.0), 0.1 mM NADP^+, 0.5 U mL^−1 Cd7α-HSDH and 5 U mL^−1 NADPH-oxidase were incubated at 25° C. The biotransformation were done in glass vials with a stirring bar in it and a stirrer speed of 500 rpm for 18 hours. Samples were taken periodically and diluted with methanol-water (pH 2.6) (9:1 v/v) for H PLC-analysis. […]
# [5] = CDCA as substrate
Molecule,activity with NADP^+ [1],activity with NAD^+ [1],other results
"7α-HSDH [D42G/I43R]: NADP+-dependent double mutant D42G/I43R of E. coli 7α-HSDH, SEQ ID NO: 41 (N-His-Tag) (protein, N-terminal His-tag; 7alpha HSDH E. coli mutant D42G/I43R + N-terminal His-Tag) MGSSHHHHHHSSGLVPRGSHMFNSDNLRLDGKCAIITGAGAGIGKEIAITFATAGASVVVSGRNADAANHVVDEIQQLGGQAFACRCDITSEQELSALADFAISKLGKVDILVNNAGGGGPKPFDMPMADFRRAYELNVFSFFHLSQLVAPEMEKNGGGVILTITSMAAENKNINMTSYASSKAAASHLVRNMAFDLGEKNIRVNGIAPGAILTDALKSVITPEIEQKMLQHTPIRRLGQPQDIANAALFLCSPAASWVSGQILTVSGGGVQELN",6.3 U/mg,0.1 U/mg,activity with NADP^+ ([1]; listed as no. 4): about 6.3 U/mg; activity with NAD^+ ([1]; listed as no. 4): only marginal activity
"7α-HSDH [wildtype]: NAD+-dependent 7α-HSDH of E. coli, wildtype, SEQ ID NO: 38 (N-His-Tag) (protein, N-terminal His-tag; E. coli 7alpha HSDH WT + N-terminal His Tag) MGSSHHHHHHSSGLVPRGSHMFNSDNLRLDGKCAIITGAGAGIGKEIAITFATAGASVVVSDINADAANHVVDEIQQLGGQAFACRCDITSEQELSALADFAISKLGKVDILVNNAGGGGPKPFDMPMADFRRAYELNVFSFFHLSQLVAPEMEKNGGGVILTITSMAAENKNINMTSYASSKAAASHLVRNMAFDLGEKNIRVNGIAPGAILTDALKSVITPEIEQKMLQHTPIRRLGQPQDIANAALFLCSPAASWVSGQILTVSGGGVQELN",0 U/mg,51.6 U/mg,–
"7β-HSDH [G39E]: NAD(H)-dependent 7β-HSDH mutant G39E from C. aerofaciens, SEQ ID NO:48 (C-His-Tag) (protein, C-terminal His-tag; 7beta-HSDH Mutante [G39E] C. aerofaciens + C-terminal His-Tag) MNLREKYGEWGLILGATEGVGKAFCEKIAAGGMNVVMVERREEKLNVLAGEIRETYGVETKVVRADFSQPGAAETVFAATEGLDMGFMSYVACLHSFGKIQDTPWEKHEAMINVNVVTFLKCFHHYMRIFAAQDRGAVINVSSMTGISSSPWNGQYGAGKAFILKMTEAVACECEGTGVDVEVITLGTTLTPSLLSNLPGGPQGEAVMKIALTPEECVDEAFEKLGKELSVIAGQRNKDSVHDWKANHTEDEYIRYMGSFYRDLEHHHHHH",–,–,one-step conversion of CDCA in directly coupled oxidation and reduction [2]: operable
"7β-HSDH [G39S/R64E]: NADP+-dependent 7β-HSDH double mutant G39S/R64E from C. aerofaciens, SEQ ID NO:45 (protein, 7beta-HSDH Mutant [G39S/R64E] C. aerofaciens + C-terminal His-tag) MNLREKYGEWGLILGATEGVGKAFCEKIAAGGMNVVMVSRREEKLNVLAGEIRETYGVETKVVEADFSQPGAAETVFAATEGLDMGFMSYVACLHSFGKIQDTPWEKHEAMINVNVVTFLKCFHHYMRIFAAQDRGAVINVSSMTGISSSPWNGQYGAGKAFILKMTEAVACECEGTGVDVEVITLGTTLTPSLLSNLPGGPQGEAVMKIALTPEECVDEAFEKLGKELSVIAGQRNKDSVHDWKANHTEDEYIRYMGSFYRDLEHHHHHH",–,–,one-step conversion of CDCA in directly coupled oxidation and reduction [3]: operable
"7α-HSDH [D42A/I43R]: double mutant D42A/I43R of E. coli 7α-HSDH (SEQ ID NO: 37) (protein, listed as Escherichia coli) MFNSDNLRLDGKCAIITGAGAGIGKEIAITFATAGASVVVSARNADAANHVVDEIQQLGGQAFACRCDITSEQELSALADFAISKLGKVDILVNNAGGGGPKPFDMPMADFRRAYELNVFSFFHLSQLVAPEMEKNGGGVILTITSMAAENKNINMTSYASSKAAASHLVRNMAFDLGEKNIRVNGIAPGAILTDALKSVITPEIEQKMLQHTPIRRLGQPQDIANAALFLCSPAASWVSGQILTVSGGGVQELN",2.1 U/mg,0 U/mg,–
"7α-HSDH [D42G]: single mutant D42G of E. coli 7α-HSDH (SEQ ID NO: 37) (protein, listed as Escherichia coli) MFNSDNLRLDGKCAIITGAGAGIGKEIAITFATAGASVVVSGINADAANHVVDEIQQLGGQAFACRCDITSEQELSALADFAISKLGKVDILVNNAGGGGPKPFDMPMADFRRAYELNVFSFFHLSQLVAPEMEKNGGGVILTITSMAAENKNINMTSYASSKAAASHLVRNMAFDLGEKNIRVNGIAPGAILTDALKSVITPEIEQKMLQHTPIRRLGQPQDIANAALFLCSPAASWVSGQILTVSGGGVQELN",0.3 U/mg,0.4 U/mg,–
"7α-HSDH [I43R]: single mutant I43R of E. coli 7α-HSDH (SEQ ID NO: 37) (protein, listed as Escherichia coli) MFNSDNLRLDGKCAIITGAGAGIGKEIAITFATAGASVVVSDRNADAANHVVDEIQQLGGQAFACRCDITSEQELSALADFAISKLGKVDILVNNAGGGGPKPFDMPMADFRRAYELNVFSFFHLSQLVAPEMEKNGGGVILTITSMAAENKNINMTSYASSKAAASHLVRNMAFDLGEKNIRVNGIAPGAILTDALKSVITPEIEQKMLQHTPIRRLGQPQDIANAALFLCSPAASWVSGQILTVSGGGVQELN",0.4 U/mg,51.8 U/mg,–
"Cd7α-HSDH: NADP+-dependent 7α-hydroxysteroid dehydrogenase from Clostridium difficile (DSM 12056), SEQ ID NO: 34; with N-His-tag SEQ ID NO: 35 (protein, Clostridium difficile) MEKLQGKIAVVTAATKGIGLASAEILAKNGATVYLAARSEELAHEVINKISAEGGCAKFVYFNAREEETFTSMIEEVVKKEGKIDILVNNFGSTNPSLDKDLVTGDTDNFFDTVNTNLKSVYLPCKAAIPHMIKNGKGSIVNISSIGSVLPDLSRIAYCVSKAAINSLTQNIATQYAKDNVRCNAVLPGLIATKAALDNMSPEFIKEFLKHVPLNRIGEPDDIAKAVLFYASDDSSFITGDLLEVAGGFGLPTPQFADNILG",–,–,conversion of CDCA to 7-KLCA [4]: > 99%; conversion of CDCA to 7-KLCA ([4]; listed as enzyme from C. difficile): < 99%; one-step conversion of CDCA in directly coupled oxidation and reduction [3]: operable; activity ([5]; 45° C.): 11 U mg^−1; activity (maximum) ([5]; 60° C.): 77 U mg^−1; temperature of maximum activity ([5]; investigated between 15 and 65° C.): 60 °C
